Bridges are numbered along the chain shown (N, C = ends). Where no end group is shown, it is not given here.
T1: low-density lipoprotein receptor-related protein 6 (LRP6) (UniProt O75581 20-1370, limits assumed)
T1 construct: also called LRP6 receptor
T1 sequence (looked up): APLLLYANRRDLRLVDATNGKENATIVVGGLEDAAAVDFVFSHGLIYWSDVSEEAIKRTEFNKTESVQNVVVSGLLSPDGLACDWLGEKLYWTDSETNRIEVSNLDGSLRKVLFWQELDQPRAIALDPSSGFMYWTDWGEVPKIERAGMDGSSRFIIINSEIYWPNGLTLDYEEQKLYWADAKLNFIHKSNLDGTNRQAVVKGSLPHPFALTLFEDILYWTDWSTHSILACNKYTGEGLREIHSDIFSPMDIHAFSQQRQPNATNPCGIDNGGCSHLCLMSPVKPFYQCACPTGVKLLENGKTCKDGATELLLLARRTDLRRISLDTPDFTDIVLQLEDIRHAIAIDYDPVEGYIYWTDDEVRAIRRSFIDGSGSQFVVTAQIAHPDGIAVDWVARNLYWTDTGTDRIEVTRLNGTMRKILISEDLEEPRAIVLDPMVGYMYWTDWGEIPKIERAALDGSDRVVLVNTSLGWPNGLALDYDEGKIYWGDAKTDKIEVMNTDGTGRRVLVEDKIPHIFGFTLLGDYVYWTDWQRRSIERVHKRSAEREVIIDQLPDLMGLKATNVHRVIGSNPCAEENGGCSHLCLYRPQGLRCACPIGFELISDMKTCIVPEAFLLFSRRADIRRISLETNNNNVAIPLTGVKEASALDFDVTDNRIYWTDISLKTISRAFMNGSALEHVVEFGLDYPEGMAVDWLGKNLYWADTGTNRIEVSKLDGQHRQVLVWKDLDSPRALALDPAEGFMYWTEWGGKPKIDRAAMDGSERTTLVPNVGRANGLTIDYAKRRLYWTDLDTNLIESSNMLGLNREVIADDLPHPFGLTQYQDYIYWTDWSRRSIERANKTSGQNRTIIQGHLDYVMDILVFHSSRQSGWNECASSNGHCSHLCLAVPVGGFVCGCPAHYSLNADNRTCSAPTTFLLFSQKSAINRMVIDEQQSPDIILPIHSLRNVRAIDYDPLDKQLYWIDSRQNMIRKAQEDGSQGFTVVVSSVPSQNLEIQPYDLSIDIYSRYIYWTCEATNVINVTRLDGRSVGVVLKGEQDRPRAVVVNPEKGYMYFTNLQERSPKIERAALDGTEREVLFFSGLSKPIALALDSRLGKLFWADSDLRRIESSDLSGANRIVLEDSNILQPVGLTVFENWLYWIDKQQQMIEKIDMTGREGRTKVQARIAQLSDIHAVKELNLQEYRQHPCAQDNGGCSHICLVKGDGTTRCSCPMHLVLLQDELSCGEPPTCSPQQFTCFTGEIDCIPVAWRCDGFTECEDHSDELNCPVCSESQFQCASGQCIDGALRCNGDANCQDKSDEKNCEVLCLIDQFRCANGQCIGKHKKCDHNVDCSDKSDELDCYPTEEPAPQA

B1: pep-4 (SEQ ID NO: 4) (peptide)
peptide: CCARHFWSKIC
modifications: disulfide 1-11
notes: Made by synthesis; Held on nanoparticles as the ligand in the LSPR assay
B2: pep-2 (SEQ ID NO: 2) (peptide)
peptide: QVCTKHRRKGSHGLEIFQRCY
notes: Held on nanoparticles as the ligand in the LSPR assay

Molecular target: T1, low-density lipoprotein …
Assay: LSPR spectroscopy; peptide on nanoparticles as ligand, LRP6 as analyte at 10^-9 to 10^-6 M; sigmoid fit of plasmon shift
Description: In this example, the binding affinity of exemplary peptides to the LRP6 receptor was determined by performing localized surface plasmon resonance (LSPR) spectroscopy. In the LSPR spectroscopy, the response of free electrons to nanoparticles in the presence of biomolecules may be observed as changes in wavelength and intensity of absorption. A stabilized compound on the nanoparticles' surface is called a ligand, and a second free compound is called an analyte. […] Also, the LRP6 was used as the analyte because of its negative surface charge. By adding the LRP6 as the analyte in the concentration ranges of 10⁻⁹ M to 10⁻⁶ M, the wavelength changes (plasmon shift) were recorded for each concentration. In the end, the KD values of exemplary peptides were determined by calculating the sigmoid curve of wavelength changes in terms of LRP6 concentration.

Binder | Kd [nM]
B1 | ~550
B2 | ~470

Source: US20210198329A1 (PASTEUR INSTITUTE OF IRAN, published 2021)
